This note sets out measurements from US20230235074A1 (University of Texas, published 2023).

One may read the Kd as the concentration at which binding is half-saturated. By koff is commonly meant the first-order rate constant of dissociation. As usually defined, the kon is the rate constant with which the complex forms.

Experiment [1] concerns the target BST2 as expressed endogenously on the surface of human cell lines (B-LCL, MM1, U266, MCF-10A, MCF7, MDA-MB-231, T47D) (human) (UniProt Q10589). The experiment in a line: flow cytometry dot plot, T47D-NS (non-silencing transduction) cells, 26F8 at 2 ug/ml and APC-conjugated secondary antibody; Q3 6.94, Q4 21.4. For orientation: In flow cytometry, cells or beads pass a laser one at a time.

Experiment [2] shares this target. The experiment in a line: flow cytometry on MCF7 cells, mAb 1 ug/ml.
For experiment [3] the target is unchanged. The experiment in a line: flow cytometry on U266 cells, mAb 1 ug/ml.
Experiment [4] has as its target BST2 medium isoform (BST2-H, 158 amino acids) expressed on HEK293 transfectants. Put plainly: flow cytometry, mAb 1 ug/ml on HEK293-medium cells.
The target of experiment [5] is BST2 as expressed endogenously on the surface of human cell lines (B-LCL, MM1, U266, MCF-10A, MCF7, MDA-MB-231, T47D) (human) (UniProt Q10589). The experiment in a line: flow cytometry on MCF-10A cells, mAb 1 ug/ml.
BST2 as expressed endogenously on the surface of human cell lines (B-LCL, MM1, U266, MCF-10A, MCF7, MDA-MB-231, T47D) (human), sequence (Q10589 1-161, stated change not applied): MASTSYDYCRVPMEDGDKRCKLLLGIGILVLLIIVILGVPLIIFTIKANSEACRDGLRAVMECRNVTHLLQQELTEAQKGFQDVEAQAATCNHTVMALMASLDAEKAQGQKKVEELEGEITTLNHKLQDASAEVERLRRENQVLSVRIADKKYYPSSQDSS
In experiment [6] the target is BST2 in human tissue microarray cores. Put plainly: immunohistochemistry, tissue microarray #72070, antigen retrieval H1; BIDC stroma: 0 positive of 40 tested specimens.
BST2 in human tissue microarray cores, sequence (chain, as listed by the source limits assumed): as the sequence (Q10589 1-161, stated change not applied) above
The target of experiment [7] is BST2 as expressed endogenously on the surface of human cell lines (B-LCL, MM1, U266, MCF-10A, MCF7, MDA-MB-231, T47D) (human) (UniProt Q10589). Put plainly: flow cytometry on MDA-MB-231 cells, mAb 1 ug/ml.
In experiment [8] the target is Recombinant human BST2 protein (Catalog number 13370-H07H, Sino Biological) (human) (UniProt Q10589). Put plainly: BLI (Octet RED384), mAb 5 ug/ml captured on anti-mouse IgG Fc (AMC) biosensors, BST2 protein 15.625-1000 nM, 1:1 model, global fit. On the technique in general: In BLI a coated tip is dipped into the sample, and binding shifts an interference pattern.
Recombinant human BST2 protein (Catalog number 13370-H07H, Sino Biological) (human), sequence (Q10589 49-161 limits assumed): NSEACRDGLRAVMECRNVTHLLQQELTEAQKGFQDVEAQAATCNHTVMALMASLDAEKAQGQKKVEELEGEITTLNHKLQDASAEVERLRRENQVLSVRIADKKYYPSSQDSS
Experiment [9] deals with BST2 as expressed endogenously on the surface of human cell lines (B-LCL, MM1, U266, MCF-10A, MCF7, MDA-MB-231, T47D) (human) (UniProt Q10589). The experiment in a line: flow cytometry dot plot, T47D-NS (non-silencing transduction) cells, 26F8 at 2 ug/ml and APC-conjugated secondary antibody.
For experiment [10] the target is unchanged. The experiment in a line: flow cytometry on MM1 cells, mAb not preincubated.
Experiment [11] shares this target. Put plainly: flow cytometry on MM1 cells, mAb 1 ug/ml.
For experiment [12], the target named is BST2 in human tissue microarray cores. Put plainly: immunohistochemistry, tissue microarray #72070, antigen retrieval H1; Placenta: 0 positive of 1 tested specimen.
Experiment [13] deals with BST2 as expressed endogenously on the surface of human cell lines (B-LCL, MM1, U266, MCF-10A, MCF7, MDA-MB-231, T47D) (human) (UniProt Q10589). Put plainly: flow cytometry on B-LCL cells, mAb 1 ug/ml.
Experiment [14] addresses BST2 in human tissue microarray cores. The experiment in a line: immunohistochemistry, tissue microarray #72070, antigen retrieval H1; Placenta stroma: 0 positive of 1 tested specimen.
Experiment [15] has the same target. Put plainly: immunohistochemistry, tissue microarray #78070 (normal tissues), antigen retrieval H1; Parenchymal: 0 positive of 7 tested.
The target of experiment [16] is BST2 as expressed endogenously on the surface of human cell lines (B-LCL, MM1, U266, MCF-10A, MCF7, MDA-MB-231, T47D) (human) (UniProt Q10589). The experiment in a line: flow cytometry dot plot, T47D-WT cells, 26F8 at 2 ug/ml and APC-conjugated secondary antibody; Q4 (unstained) 2.71.
Experiment [17] deals with BST2 in human tissue microarray cores. The experiment in a line: immunohistochemistry, tissue microarray #72070, antigen retrieval H1; Breast stroma: 0 positive of 8 tested specimens.
Experiment [18] concerns the target BST2 as expressed endogenously on the surface of human cell lines (B-LCL, MM1, U266, MCF-10A, MCF7, MDA-MB-231, T47D) (human) (UniProt Q10589). The experiment in a line: flow cytometry, MCF7 cells, APC-conjugated secondary antibody (the text prints 34.7% for the same panel).
The target of experiment [19] is BST2 long isoform (BST2-D, full length BST2, 180 amino acids) expressed on HEK293 transfectants (human) (UniProt Q10589). The experiment in a line: flow cytometry, HEK293 long transfectant, 1 ug/ml antibody, APC-conjugated secondary antibody.
BST2 long isoform (BST2-D, full length BST2, 180 amino acids) expressed on HEK293 transfectants (human), sequence (Q10589 1-161 limits assumed): as the sequence (Q10589 1-161, stated change not applied) above
The target of experiment [20] is BST2 as expressed endogenously on the surface of human cell lines (B-LCL, MM1, U266, MCF-10A, MCF7, MDA-MB-231, T47D) (human) (UniProt Q10589). The experiment in a line: flow cytometry on T47D cells, mAb 1 ug/ml.
Experiment [21] deals with BST2 in human tissue microarray cores. The experiment in a line: immunohistochemistry, tissue microarray #72070, antigen retrieval H1; Normal breast: 0 positive of 8 tested specimens.
Experiment [22] concerns the target BST2 as expressed endogenously on the surface of human cell lines (B-LCL, MM1, U266, MCF-10A, MCF7, MDA-MB-231, T47D) (human) (UniProt Q10589). The experiment in a line: flow cytometry dot plot, T47D cells transduced with BST2-silencing shRNA, 26F8 at 2 ug/ml and APC-conjugated secondary antibody.
Experiment [23] has the same target. The experiment in a line: flow cytometry on MM1 cells, mAb preincubated with recombinant BST2 protein as competitor.
The target is the same in experiment [24]. The experiment in a line: flow cytometry on MM1 cells, mAb preincubated with Spartan protein.
The target is the same in experiment [25]. Put plainly: flow cytometry dot plot, T47D cells transduced with BST2-silencing shRNA, 26F8 at 2 ug/ml and APC-conjugated secondary antibody; Q3 58.1, Q4 26.6.
The target of experiment [26] is T1, BST2 long isoform peptide (BST2-D peptide), positions 133-156 (human).
T1 construct: Synthetic 24-mer; the free peptide (not KLH conjugated) coated the ELISA plates; also called BST2-Long (D) peptide; BST2 peptide
T1 peptide: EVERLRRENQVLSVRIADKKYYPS
Put plainly: ELISA dilution assay, plate coated with BST2 peptide alone, hybridoma supernatant undiluted and 1/15, 1/225, 1/3375, OD 450 nm (axis unlabelled on the sheet). How it is done: FIG. 5. Dilution assay. 26 positive clones were tested at serial dilutions as described under methods. Sixteen clones with the highest OD450 nm signal (those with squares around their names) were selected for further characterization. LA1-LA16 are clones picked at the first round of colony pickup; BM1-BM10 clones picked at the second round of colony pickup. PC is the positive control using anti-BST2 mAb (Clone 26F8) 1 ug/ml which recognizes all isoforms. Plates were coated with BST2 peptide alone.
To select the hybridomas capable of producing specific monoclonal antibodies against the BST2-D peptide, ELISA was performed. ELISA plates were coated with a 100 ul coating buffer, containing the BST2-D peptide in a concentration of 1 ug/ml, and incubated overnight at 4° C. Next day, ELISA plates were washed three times with PBST (PBS containing 0.05% v/v Tween®-20) and blocked with 100 ul of blocking buffer (PBS, 1% w/v BSA). After 1-hour blocking at room temperature, 50 ul supernatant from each of the 563 colonies were added to individual wells as the primary antibodies. Anti-BST2 mAb (Clone 26F8) [eBioscience] was used as a positive control and blank wells with secondary antibody only were performed in triplicates. Incubation proceeded for 1 hour followed by three washes. […] The reaction was stopped with H₂SO₄ 0.2N and the OD absorbance values were read at 450 nm. […]
Background: ELISA stands for enzyme-linked immunosorbent assay.

For experiment [27], the target named is T2, BST2 long isoform (BST2-D, full length BST2, 180 amino acids) expressed on HEK293 transfectants (human, UniProt Q10589 1-161).
T2 construct: also called HEK293-long; HEK293 WT-BST2
T2 sequence (Q10589 1-161 limits assumed): as the sequence (Q10589 1-161, stated change not applied) above
Put plainly: flow cytometry, hybridoma supernatant on HEK293-long cells. How it is done: For flow cytometry assays, cells were detached using 0.05% trypsin-EDTA, counted, washed and resuspend with FACS Buffer (PBS, 2% FBS, 2 mM EDTA). 2×10⁵ cells in 100 ul/well were placed in U-bottom 96-well plate and centrifuged (1000 RPM/3 min/4° C.). The buffer was discarded and 100 ul of the previously collected supernatants with selected monoclonal antibodies were added to the wells and incubated on ice for 30 minutes. After incubation, the plate was washed three times with FACS buffer and 50 ul of diluted (1/250) secondary antibody (Donkey anti-mouse Allophycocyanin (APC) conjugated) were added to the wells and incubated on ice for 20 minutes protected from light. The final wash was repeated 4 times, and the samples were transferred and analyzed at the South Campus Flow Cytometry & Cell Sorting Core Laboratory at MD Anderson Cancer Center. FACS data were analyzed with FlowJo™ Software—for Windows (Version 10.6.1. Ashland, Oreg.: Becton, Dickinson and Company; 2020).

For “anti-BST2 monoclonal antibody clone 26F8 (eBioscience)”, the percent of cells in quadrant Q2 (APC positive, GFP positive) in [1] came out at 58.5%; in experiment [25], 9.27%. The percentage of cell staining in experiment [2] was determined as 34.7%; in experiment [3], 97.1%; in experiment [5], 27.7%; in experiment [7], 28.4%; in experiment [11] it was 99.6%; in experiment [13], 99.7%. In experiment [20], this molecule displayed a percentage of cell staining of 96.6%. Moreover, the percentage of cells stained in [4] was found to be 96.7%. In addition, the detectable rate (% of tested specimens positive) in [6], in experiment [12], in experiment [14], in [15], in experiment [17] and in experiment [21] was 0% in each case. In addition, the Kd in [8] worked out at 34.2 nM. The koff in experiment [8] came out at 0.00132 s⁻¹. In addition, the kon in [8] amounted to 38600 M⁻¹ s⁻¹. Also, the percent of cells in quadrant Q1 (APC positive, GFP negative) was 13.1% in experiment [9], 97.2% in experiment [16] and 6.09% in [22]. Further, the results for the percentage of stained cells in experiment [10], in experiment [23] and in [24] were 98.2%, 2.6% and 98.1%, respectively. Further, the percent of cells stained was 37.7% in experiment [18] and 98.7% in experiment [19].

B1: LA1 antibody (antibody, IgG1, V domains shown)
VH: EVQLQQSGPELVKPGASVKISCKTSGYTFTEDTMHWVKQSHGKSLEWIGGINPNKGGTSYNQKFKDKATLTVDKSSSTAYMELRSLTSEDSAVYYCATLVDYWGQGTTLTVSS
VL: DIVMTQSQKFMSTSVGDRVSVTCKASQNVGTNVAWYQQKPGQSPKALIHSASYRYSGVPDRFTGSGSGTDFTLTISNVQSEDLAEYFCQQYNSYPLTFGAGTKLELK
notes: Mouse hybridoma antibody, isotype IgG1, kappa; Tested as hybridoma supernatant
Regarding B1, in [26], the binding result is recorded as “binds”. Further, in experiment [27], the “percentage of cells stained” value is 70.9%.

B2: BM7 antibody (antibody, IgG1, V domains shown)
VH: QVTLKESGPGILKPSQTLSLTCSFSGFSLSTSGVGVGWIRQPSGKGLEWLAHIWWDDDEYYNPSLKSQLTISKDTSRNQVFLKITSVDTSDTATYYCARRYYGDAMDYWGQGTAVTVSS
VL: DVVMTQTPVSLPVSLGDQASISCRSTQSLVHSNGHTYLHWYLQKPGQSPKLLIYKVSNRFSGVPDRFSGTGSGTDFTLKISRVEAEDLGVYFCSQSTHVPYTFGGGTKLEIK
notes: Tested as hybridoma supernatant
As for B2, in experiment [27], the “percentage of cells stained” value was found to be 39.8%.
